Experimental data as given in patent publication US11230591.

Target: pentameric gH complex on infectious CMV (neutralization assays) (human cytomegalovirus)
Assay: cell-based or functional assay

| EC50 Neutralizing [ng/mL] | Binder |
| --- | --- |
| 1 | 1-175 (antibody, V domains shown) VH: QVHLVESGGGLVKPGGSLRLSCAASGFTFSDYYMAWIRRAPGKGLEWISFISGSGRTLYHAESVKGRFTVSRDNAKDSLYLHMHSLRDADTAVYYCARDSYSKLVEIEAIEAFDVWGRGTVVTVSS VL: SYELAQPPSVSVAPGKPARIACGGDNIGGKSVHWYLQKAGQAPVLVMSYDSDRPSGIPERFSGSNSGNTATLTISRVEAGDEGDYFCQVWDRQTDHVVFGGGTKLTVL |
| 0.9 | 1-15 (antibody, V domains shown) VH: QVQLVASGGGLVKPGGSLRLSCAASEFTFSDYYMTWIRQAPGKGLEWVSYISSSGTTIYYADSVKGRFTVSRDNAKNSLFLQMNSLRAEDTALYYCARDSYSKLVDIEAIEAFDIWGQGTMVTVSS VL: SYELTQPPSVSVGPGRTARITCGANNIGSKSVHWYQQRPGQAPVLVISFDTDRPSGIPERFSGSNSGNTATLTISRVEAGDEADYFCQVWDRTSDHVVFGGGTKLTVL |
| 1 | 1-64 (antibody, V domains shown) VH: QVQLVASGGGLVKPGGSLRLSCAASGFTFSDYYMTWIRQAPGKGLEWVSYISSSGTTIYYADSVKGRFTVSRDNAKNSLFLQMNSLRAEDTALYYCARDSYSKLVDIEAIEAFDIWGQGTMVTVSS VL: SYELTQPPSVSVGPGRTARITCGANNIGSKSVHWYQQRPGQAPVLVISFDTDRPSGIPERFSGSNSGNTATLTISRVEAGDEADYFCQVWDRTSDHVVFGGGTKLTVL |
